Here are results for one molecule from US20210087522A1 (UNIVERSITY OF FLORIDA RESEARCH FOUNDATION, published 2021).

Experiment [1] has as its target T1, APPT, Sfp-like phosphopantetheinyl transferase (PPTase) from Anabaena sp. PCC7120 (Anabaena sp. PCC7120, UniProt P37695 1-237).
T1 construct: also called Anabaena PPTase
T1 sequence: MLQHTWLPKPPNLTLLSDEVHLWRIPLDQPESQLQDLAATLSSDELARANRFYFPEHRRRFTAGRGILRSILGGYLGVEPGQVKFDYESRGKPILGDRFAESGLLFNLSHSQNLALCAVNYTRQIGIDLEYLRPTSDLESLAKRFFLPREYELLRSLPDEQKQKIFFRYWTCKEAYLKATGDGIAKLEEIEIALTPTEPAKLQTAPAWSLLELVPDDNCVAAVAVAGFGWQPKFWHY
The experiment is described as follows: read from Km, Michaelis-Menten kinetics of phosphopantetheinylation (HPLC).

In experiment [2] the target is T2, SPPT, Sfp-like phosphopantetheinyl transferase (PPTase) from Synechocystis sp. PCC6803 (Synechocystis sp. PCC6803, UniProt Q55185 1-246).
T2 construct: Recombinant protein with a His-tag from pET28b, made in E. coli
T2 sequence: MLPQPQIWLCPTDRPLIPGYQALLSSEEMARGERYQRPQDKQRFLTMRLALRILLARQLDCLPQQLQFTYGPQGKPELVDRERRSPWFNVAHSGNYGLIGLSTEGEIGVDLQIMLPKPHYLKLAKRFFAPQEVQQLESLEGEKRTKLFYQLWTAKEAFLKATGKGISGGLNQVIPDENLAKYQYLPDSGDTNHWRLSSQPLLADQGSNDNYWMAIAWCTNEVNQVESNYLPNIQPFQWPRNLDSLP
The experiment is described as above.

B1: SFACP, ACP of the FAS from Synechocystis (other)
chain: MDQEIFEKVKKIVVEQLEVDPDKVTPDATFAEDLGADSLDTVELVMALEEEFDIEIPDEVAETIDTVGKAVEHIESK
On to B1, for which the binding result in experiment [1] and in experiment [2] was “binds” throughout.
